From patent publication US11306156 come the findings set out here.

The target of test [1] is D3H44 Fab heavy chain L124E_L143E_K145T, C-terminal ABD2-His6 tag. Briefly: LCCA set 9316 (co-expression; SPR read-out of light-chain tags; L1:L2 DNA 1:3, normalized to 1:1); competing light chain m17.
For test [2], the target named is D3H44 Fab heavy chain L124E_L143D_K145T, C-terminal ABD2-His6 tag. As to the kind of experiment: LCCA co-expression, SPR tag read-out; DNA 1:3 norm. to 1:1; competing light chain m13.
The target in test [3] is D3H44 Fab heavy chain L124E_L143E_K145T, C-terminal ABD2-His6 tag. The test is described as above.
The target of test [4] is D3H44 Fab heavy chain L124R_Q179K, C-terminal ABD2-His6 tag. The test is described as above.
Test [5] has as its target D3H44 Fab heavy chain L124E_L143E_K145M, C-terminal ABD2-His6 tag. The test is described as above.
Test [6] has as its target D3H44 Fab heavy chain L124R_S186K, C-terminal ABD2-His6 tag. Described as above.
In test [7] the target is D3H44 Fab heavy chain L124E_L143E_K145T, C-terminal ABD2-His6 tag. As to the kind of experiment: LCCA (co-expression, SPR read-out of light chain tags), L1:L2 DNA 1:3 normalised to 1:1; competitor m13.
In test [8] the target is D3H44 Fab heavy chain L124R_Q179K, C-terminal ABD2-His6 tag. The description is as above.
The target of test [9] is D3H44 Fab heavy chain L124E_L143E_K145M, C-terminal ABD2-His6 tag. The test is described as above.
The target of test [10] is D3H44 Fab heavy chain L124E_L143E_K145T, C-terminal ABD2-His6 tag. Briefly: LCCA set 9323 (co-expression; SPR read-out of light-chain tags; L1:L2 DNA 1:3, normalized to 1:1); competing light chain m14.
The target of test [11] is D3H44 Fab heavy chain L124E_L143D_K145T, C-terminal ABD2-His6 tag. As to the kind of experiment: LCCA (co-expression, SPR read-out of light chain tags), L1:L2 DNA 1:3 normalised to 1:1; competitor m16.
The target in test [12] is D3H44 Fab heavy chain L124E_L143E_K145M, C-terminal ABD2-His6 tag. The description is as above.
The target in test [13] is D3H44 Fab heavy chain L124R_S186K, C-terminal ABD2-His6 tag. The description is as above.
In test [14] the target is D3H44 Fab heavy chain L124E_L143E_K145M, C-terminal ABD2-His6 tag. As to the kind of experiment: LCCA set 9266 (co-expression; SPR read-out of light-chain tags; L1:L2 DNA 1:3, normalized to 1:1); competing light chain m17.
Test [15] concerns the target D3H44 Fab heavy chain L124R_S186R, C-terminal ABD2-His6 tag. As to the kind of experiment: LCCA set 9550 (co-expression; SPR read-out of light-chain tags; L1:L2 DNA 1:3, normalized to 1:1); competing light chain m14.
The target of test [16] is D3H44 Fab heavy chain L124E_L143E_K145T, C-terminal ABD2-His6 tag. As to the kind of experiment: LCCA set 9320 (co-expression; SPR read-out of light-chain tags; L1:L2 DNA 1:3, normalized to 1:1); competing light chain m18.
Test [17] has as its target D3H44 Fab heavy chain L124R_Q179K, C-terminal ABD2-His6 tag. As to the kind of experiment: LCCA set 9388 (co-expression; SPR read-out of light-chain tags; L1:L2 DNA 1:3, normalized to 1:1); competing light chain m17.
Test [18] concerns the target D3H44 Fab heavy chain L124R_S186K, C-terminal ABD2-His6 tag. Briefly: LCCA set 9488 (co-expression; SPR read-out of light-chain tags; L1:L2 DNA 1:3, normalized to 1:1); competing light chain m18.
The target of test [19] is D3H44 Fab heavy chain L124E_L143D_K145M, C-terminal ABD2-His6 tag. As to the kind of experiment: LCCA set 9202 (co-expression; SPR read-out of light-chain tags; L1:L2 DNA 1:3, normalized to 1:1); competing light chain m13.
Test [20] addresses D3H44 Fab heavy chain L124E_L143E_K145T, C-terminal ABD2-His6 tag. Briefly: LCCA set 9320 (co-expression; SPR read-out of light-chain tags; L1:L2 DNA 1:3, normalized to 1:1); competing light chain m9.
Test [21] addresses D3H44 Fab heavy chain L124E_L143D_K145T, C-terminal ABD2-His6 tag. As to the kind of experiment: LCCA set 9240 (co-expression; SPR read-out of light-chain tags; L1:L2 DNA 1:3, normalized to 1:1); competing light chain m13.
Test [22] concerns the target D3H44 Fab heavy chain L124R_S186K, C-terminal ABD2-His6 tag. Briefly: LCCA set 9488 (co-expression; SPR read-out of light-chain tags; L1:L2 DNA 1:3, normalized to 1:1); competing light chain m9.
Test [23] has as its target D3H44 Fab heavy chain L124E_L143E_K145T, C-terminal ABD2-His6 tag. As to the kind of experiment: LCCA co-expression, SPR tag read-out; DNA 1:3 norm. to 1:1; competing light chain m7.
The target in test [24] is D3H44 Fab heavy chain L124R_Q179K, C-terminal ABD2-His6 tag. The description is as above.
For test [25], the target named is D3H44 Fab heavy chain L124R_S186R, C-terminal ABD2-His6 tag. Briefly: LCCA co-expression, SPR tag read-out; DNA 1:3 norm. to 1:1; competing light chain m8.
Test [26] has as its target D3H44 Fab heavy chain L124E_L143E_K145T, C-terminal ABD2-His6 tag. The test is described as above.
In test [27] the target is D3H44 Fab heavy chain L124R_Q179K, C-terminal ABD2-His6 tag. Described as above.
Test [28] concerns the target D3H44 Fab heavy chain L124R_S186R, C-terminal ABD2-His6 tag. As to the kind of experiment: LCCA set 9544 (co-expression; SPR read-out of light-chain tags; L1:L2 DNA 1:3, normalized to 1:1); competing light chain m13.
The target is the same in test [29]. As to the kind of experiment: LCCA (co-expression, SPR read-out of light chain tags), L1:L2 DNA 1:3 normalised to 1:1; competitor m8.
For test [30], the target named is D3H44 Fab heavy chain L124E_L143E_K145T, C-terminal ABD2-His6 tag. Described as above.
Test [31] has as its target D3H44 Fab heavy chain L124R_S186K, C-terminal ABD2-His6 tag. The description is as above.

In the case of “D3H44 light chain Q124K_V133G_S176R_T178R, N-terminal HA or FLAG tag”, the H1L1:H1L2 normalized median ratio (H1L1 part) in test [1] worked out at 88%; in [10] it was 91%; in test [14], 84%; in [16] it was 86%. The H1L1:H1L2 normalized median scalar value ln(r1/f1) in test [1] was determined as 2; in test [3], 2.34; in [7], 2.15; in [9], 1.9; in test [10] it was 2.34; in [14], 1.67. In addition, the H1L1:H1L2 normalized median scalar value ln(r1/f1) in test [16] was 1.82. Besides, the values for the H1L1:H1L2 normalized median ratio (% (ratio normalized to 100)) in test [2], in test [3] and in [5] were 87, 91 and 88, respectively. In addition, the H2L2:H2L1 normalized median ratio (% (ratio normalized to 100)) in test [4] was found to be 5; in [6], 7. Moreover, the H1L1:H1L2 normalized median ratio in test [7] was determined as 90%; in test [9], 87%; in test [11], 87%; in test [12] it was 88%. Also, the H2L2:H2L1 normalized median ratio in test [8] and in test [13] was 7% each time. Also, the H2L2:H2L1 normalized median ratio (H2L1 part) in test [15] was found to be 11%; in test [17], 8%; in test [18], 9%.

As for “D3H44 light chain V133G_S176D_T178E_T180E, N-terminal HA or FLAG tag”, the H1L1:H1L2 normalized median ratio (H1L2 part) is 16% in test [19], 14% in test [20] and 13% in test [21]. Besides, the H2L2:H2L1 normalized median ratio (H2L2 part) is 91% in test [22] and 92% in test [28]. Further, the values for the H1L1:H1L2 normalized median ratio (% (ratio normalized to 100)) in test [23] and in test [26] were 6 and 5, respectively. For the same substance, the H2L2:H2L1 normalized median ratio (% (ratio normalized to 100)) was determined as 90 in [24], 91 in [25] and 90 in test [27]. In addition, the H2L2:H2L1 normalized median ratio in [29] stood at 94%; in test [31], 93%. The H1L1:H1L2 normalized median ratio in test [30] stood at 13%.
